Patent USRE48558 (Genentech, dated 2021)
Changes are numbered by the printed parent chain.

T1: extracellular domain of human CD79b (human, UniProt P40259 29-159)
T1 construct: also called huCD79becd; huCD79b-ecd
T1 sequence: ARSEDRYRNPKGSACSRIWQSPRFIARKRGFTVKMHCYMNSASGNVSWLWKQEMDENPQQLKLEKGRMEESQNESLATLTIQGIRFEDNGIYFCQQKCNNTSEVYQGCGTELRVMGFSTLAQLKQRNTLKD

B1: huMA79b graft variant SEQ ID NO: 51 (Fab, name in Kabat numbering, V domains shown)
VH: EVQLVESGGGLVQPGGSLRLSCAASGYTFSSYWIEWVRQAPGKGLEWVGEILPGGGDTNYNEIFKGRFTISADTSKNTAYLQMNSLRAEDTAVYYCTRRVPVYFDYWGQGTLVTVSS
VL: DIQMTQSPSSLSASVGDRVTITCKASQSVDYDGDSFLNWYQQKPGKAPKLLIYAASNLESGVPSRFSGSGSGTDFTLTISSLQPEDFATYYCNNSNGDPLNFGQGTKVEIKR
notes: Fab on phage; rest as huMA79b graft
B2: huMA79b graft variant SEQ ID NO: 63 (Fab, name in Kabat numbering, V domains shown)
VH: B1 VH with S30K, S31K
VL: B1 VL with N93Q, N94Q, G97E, N101T
notes: as for B1
B3: huMA79b graft variant SEQ ID NO: 56 (Fab, name in Kabat numbering, V domains shown)
VH: B1 VH with T28P, S30T, E35N
VL: B1 VL with N93Q, N94Q, G97E, N101T
notes: as for B1
B4: huMA79b graft variant SEQ ID NO: 100 (Fab, name in Kabat numbering, V domains shown)
VH: B1 VH with Y103R, F104L
VL: B1 VL with N93Q, N94Q, G97E, N101T
notes: as for B1
B5: huMA79b graft variant SEQ ID NO: 83 (Fab, name in Kabat numbering, V domains shown)
VH: B1 VH with T28P, S30N, S31G, E35N
VL: B1 VL with N93Q, N94Q, G97E, N101T
notes: as for B1
B6: huMA79b graft variant SEQ ID NO: 95 (Fab, name in Kabat numbering, V domains shown)
VH: B1 VH with V102I, Y103K, F104L
VL: B1 VL with N93Q, N94Q, G97E, N101T
notes: as for B1
B7: huMA79b graft variant SEQ ID NO: 106 (Fab, name in Kabat numbering, V domains shown)
VH: B1 VH with V100I
VL: B1 VL with N93Q, N94Q, G97E, N101T
notes: as for B1
B8: huMA79b graft variant SEQ ID NO: 80 (Fab, name in Kabat numbering, V domains shown)
VH: B1 VH with T28P, S30R, E35N
VL: B1 VL with N93Q, N94Q, G97E, N101T
notes: as for B1
B9: huMA79b graft variant SEQ ID NO: 73 (Fab, name in Kabat numbering, V domains shown)
VH: B1 VH with T28S, S30R, E35N
VL: B1 VL with N93Q, N94Q, G97E, N101T
notes: as for B1
B10: huMA79b graft variant SEQ ID NO: 82 (Fab, name in Kabat numbering, V domains shown)
VH: B1 VH with T28P, S30N, S31R
VL: B1 VL with N93Q, N94Q, G97E, N101T
notes: as for B1
B11: huMA79b graft variant SEQ ID NO: 105 (Fab, name in Kabat numbering, V domains shown)
VH: B1 VH with V100R, Y103C, F104L
VL: B1 VL with N93Q, N94Q, G97E, N101T
notes: as for B1
B12: huMA79b graft variant SEQ ID NO: 89 (Fab, name in Kabat numbering, V domains shown)
VH: B1 VH with Y103K, F104L
VL: B1 VL with N93Q, N94Q, G97E, N101T
notes: as for B1
B13: huMA79b graft variant SEQ ID NO: 96 (Fab, name in Kabat numbering, V domains shown)
VH: B1 VH with V102I, Y103R
VL: B1 VL with N93Q, N94Q, G97E, N101T
notes: as for B1
B14: huMA79b graft variant SEQ ID NO: 68 (Fab, name in Kabat numbering, V domains shown)
VH: B1 VH with T28G, S30T, E35S
VL: B1 VL with N93Q, N94Q, G97E, N101T
notes: as for B1
B15: huMA79b graft variant SEQ ID NO: 76 (Fab, name in Kabat numbering, V domains shown)
VH: B1 VH with T28S, S30P, I34L, E35Q
VL: B1 VL with N93Q, N94Q, G97E, N101T
notes: as for B1
B16: huMA79b graft variant SEQ ID NO: 102 (Fab, name in Kabat numbering, V domains shown)
VH: B1 VH with Y103F, F104L
VL: B1 VL with N93Q, N94Q, G97E, N101T
notes: as for B1
B17: huMA79b graft variant SEQ ID NO: 78 (Fab, name in Kabat numbering, V domains shown)
VH: B1 VH with T28P, S31G
VL: B1 VL with N93Q, N94Q, G97E, N101T
notes: as for B1
B18: huMA79b graft variant SEQ ID NO: 71 (Fab, name in Kabat numbering, V domains shown)
VH: B1 VH with S31G, E35N
VL: B1 VL with N93Q, N94Q, G97E, N101T
notes: as for B1
B19: huMA79b graft variant SEQ ID NO: 69 (Fab, name in Kabat numbering, V domains shown)
VH: B1 VH with S30T, I34L, E35S
VL: B1 VL with N93Q, N94Q, G97E, N101T
notes: as for B1
B20: huMA79b graft variant SEQ ID NO: 58 (Fab, name in Kabat numbering, V domains shown)
VH: B1 VH with S30N, S31R, E35N
VL: B1 VL with N93Q, N94Q, G97E, N101T
notes: as for B1
B21: huMA79b graft variant SEQ ID NO: 66 (Fab, name in Kabat numbering, V domains shown)
VH: B1 VH with T28P, F29V, S30G, S31R, E35S
VL: B1 VL with N93Q, N94Q, G97E, N101T
notes: as for B1
B22: huMA79b graft variant SEQ ID NO: 92 (Fab, name in Kabat numbering, V domains shown)
VH: B1 VH with V102F, Y103C, F104L
VL: B1 VL with N93Q, N94Q, G97E, N101T
notes: as for B1
B23: huMA79b graft variant SEQ ID NO: 59 (Fab, name in Kabat numbering, V domains shown)
VH: B1 VH with T28S, S30K
VL: B1 VL with N93Q, N94Q, G97E, N101T
notes: as for B1
B24: huMA79b graft variant SEQ ID NO: 77 (Fab, name in Kabat numbering, V domains shown)
VH: B1 VH with T28P, S30T, S31R
VL: B1 VL with N93Q, N94Q, G97E, N101T
notes: as for B1
B25: huMA79b graft variant SEQ ID NO: 81 (Fab, name in Kabat numbering, V domains shown)
VH: B1 VH with T28P, S30R, S31G
VL: B1 VL with N93Q, N94Q, G97E, N101T
notes: as for B1
B26: huMA79b graft variant SEQ ID NO: 70 (Fab, name in Kabat numbering, V domains shown)
VH: B1 VH with S30T
VL: B1 VL with N93Q, N94Q, G97E, N101T
notes: as for B1
B27: huMA79b graft variant SEQ ID NO: 72 (Fab, name in Kabat numbering, V domains shown)
VH: B1 VH with S30R, S31R, E35N
VL: B1 VL with N93Q, N94Q, G97E, N101T
notes: as for B1
B28: huMA79b graft variant SEQ ID NO: 84 (Fab, name in Kabat numbering, V domains shown)
VH: B1 VH with T28N, F29V, I34L, E35S
VL: B1 VL with N93Q, N94Q, G97E, N101T
notes: as for B1
B29: huMA79b graft variant SEQ ID NO: 52 (Fab, name in Kabat numbering, V domains shown)
VH: B1 VH
VL: B1 VL with N93Q, N94P, S95D, G97E, D98A, L100R, N101T
notes: as for B1
B30: huMA79b graft variant SEQ ID NO: 98 (Fab, name in Kabat numbering, V domains shown)
VH: B1 VH with D105S
VL: B1 VL with N93Q, N94Q, G97E, N101T
notes: as for B1
B31: huMA79b graft variant SEQ ID NO: 61 (Fab, name in Kabat numbering, V domains shown)
VH: B1 VH with T28Y, S30T
VL: B1 VL with N93Q, N94Q, G97E, N101T
notes: as for B1
B32: huMA79b graft variant SEQ ID NO: 55 (Fab, name in Kabat numbering, V domains shown)
VH: B1 VH with T28P, S30R, E35Q
VL: B1 VL with N93Q, N94Q, G97E, N101T
notes: as for B1
B33: huMA79b graft variant SEQ ID NO: 101 (Fab, name in Kabat numbering, V domains shown)
VH: B1 VH with Y103R
VL: B1 VL with N93Q, N94Q, G97E, N101T
notes: as for B1
B34: huMA79b graft variant SEQ ID NO: 62 (Fab, name in Kabat numbering, V domains shown)
VH: B1 VH with T28P, S30G, S31R, I34V, E35N
VL: B1 VL with N93Q, N94Q, G97E, N101T
notes: as for B1
B35: huMA79b graft variant SEQ ID NO: 75 (Fab, name in Kabat numbering, V domains shown)
VH: B1 VH with T28S, S30R, S31R
VL: B1 VL with N93Q, N94Q, G97E, N101T
notes: as for B1
B36: huMA79b graft variant SEQ ID NO: 85 (Fab, name in Kabat numbering, V domains shown)
VH: B1 VH with Y27F, T28P, S30T, E35S
VL: B1 VL with N93Q, N94Q, G97E, N101T
notes: as for B1
B37: huMA79b graft variant SEQ ID NO: 86 (Fab, name in Kabat numbering, V domains shown)
VH: B1 VH with Y27F, T28P, S30N, S31R, E35N
VL: B1 VL with N93Q, N94Q, G97E, N101T
notes: as for B1
B38: huMA79b graft variant SEQ ID NO: 64 (Fab, name in Kabat numbering, V domains shown)
VH: B1 VH with T28P, S30T, E35Q
VL: B1 VL with N93Q, N94Q, G97E, N101T
notes: as for B1
B39: huMA79b graft variant SEQ ID NO: 53 (Fab, name in Kabat numbering, V domains shown)
VH: B1 VH
VL: B1 VL with N93D, N94Q, S95R, G97A, N101T
notes: as for B1
B40: huMA79b graft variant SEQ ID NO: 74 (Fab, name in Kabat numbering, V domains shown)
VH: B1 VH with T28S, S30R, S31R, E35N
VL: B1 VL with N93Q, N94Q, G97E, N101T
notes: as for B1
B41: huMA79b graft variant SEQ ID NO: 65 (Fab, name in Kabat numbering, V domains shown)
VH: B1 VH with T28P, S30R, S31R
VL: B1 VL with N93Q, N94Q, G97E, N101T
notes: as for B1
B42: huMA79b graft variant SEQ ID NO: 99 (Fab, name in Kabat numbering, V domains shown)
VH: B1 VH with Y103V, F104L
VL: B1 VL with N93Q, N94Q, G97E, N101T
notes: as for B1
B43: huMA79b graft variant SEQ ID NO: 79 (Fab, name in Kabat numbering, V domains shown)
VH: B1 VH with T28P, S30R, E35S
VL: B1 VL with N93Q, N94Q, G97E, N101T
notes: as for B1

Target: T1, extracellular domain of human CD79b
Test: phage selection, Fab on phage, plate-bound huCD79becd

Binder	binding result
B1	binds
B2	binds
B3	binds
B4	binds
B5	binds
B6	binds
B7	binds
B8	binds
B9	binds
B10	binds
B11	binds
B12	binds
B13	binds
B14	binds
B15	binds
B16	binds
B17	binds
B18	binds
B19	binds
B20	binds
B21	binds
B22	binds

Binder	binding result
B23	binds
B24	binds
B25	binds
B26	binds
B27	binds
B28	binds
B29	binds
B30	binds
B31	binds
B32	binds
B33	binds
B34	binds
B35	binds
B36	binds
B37	binds
B38	binds
B39	binds
B40	binds
B41	binds
B42	binds
B43	binds
